Source: patent publication US20100080799A1 (ROCKEFELLER UNIVERSITY, published 2010)
Where no end group is shown, it is not given here. [ ]: non-standard residue; d: D form. pS = N[C@@H](COP(=O)(O)O)C(=O)O

T1: GST-tagged N-motif (1-205) of the WSTF kinase domain (human, UniProt Q9UIG0 1-205)
T1 construct: Made in E. coli; also called GST-tagged WAC N-; N-terminal motif; not shown: N-terminal GST tag of pGex6p
T1 sequence: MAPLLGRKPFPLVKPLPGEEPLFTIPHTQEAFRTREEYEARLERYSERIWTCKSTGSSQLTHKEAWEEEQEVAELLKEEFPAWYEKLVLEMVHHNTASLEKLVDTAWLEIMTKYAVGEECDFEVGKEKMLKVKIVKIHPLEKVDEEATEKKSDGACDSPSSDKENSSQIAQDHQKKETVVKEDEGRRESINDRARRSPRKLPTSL


How the values were obtained:
[1] = molecular target: T1, GST-tagged N-motif (1-205) of the WSTF …; assay: co-expression in E. coli, amylose affinity purification against the MBP tag, Superdex 200 gel filtration
Experimental: For co-expression of the N- and C-motifs of WSTF, the recombinant plasmid vectors carrying the N- and C-motif constructs (above) were transformed into E. coli host strain Rosetta2 (DE3) (Novagen) for protein expression under triple antibiotic selection (ampicillin, kanamycin, and chloramphenicol) in LB medium. After overnight induction by 0.4 mM isopropyl β-D-thiogalactoside at 25° C., cells were harvested in buffer 0.4 M KCl, 20 mM Tris, pH 7.5. Co-expressed proteins were affinity purified using Amylose resin (New England Biolabs, MA) against the MBP tag. Maltose-eluted samples were purified through a Superdex 200 column (GE Healthcare) in the elution buffer (50 mM KCL, 20 mM Tris, pH 7.5). Most proteins were eluted in a single peak that contains GST-tagged […] with a stoichiometry of 1:1.

[2] = molecular target: endogenous BRCA1 from 293T cell nuclear extracts (UniProt P38398 1-1863, limits assumed); assay: peptide pull-down from 293T nuclear extracts (FIG. 4I)
Sequence of endogenous BRCA1 from 293T cell nuclear extracts (P38398 whole entry): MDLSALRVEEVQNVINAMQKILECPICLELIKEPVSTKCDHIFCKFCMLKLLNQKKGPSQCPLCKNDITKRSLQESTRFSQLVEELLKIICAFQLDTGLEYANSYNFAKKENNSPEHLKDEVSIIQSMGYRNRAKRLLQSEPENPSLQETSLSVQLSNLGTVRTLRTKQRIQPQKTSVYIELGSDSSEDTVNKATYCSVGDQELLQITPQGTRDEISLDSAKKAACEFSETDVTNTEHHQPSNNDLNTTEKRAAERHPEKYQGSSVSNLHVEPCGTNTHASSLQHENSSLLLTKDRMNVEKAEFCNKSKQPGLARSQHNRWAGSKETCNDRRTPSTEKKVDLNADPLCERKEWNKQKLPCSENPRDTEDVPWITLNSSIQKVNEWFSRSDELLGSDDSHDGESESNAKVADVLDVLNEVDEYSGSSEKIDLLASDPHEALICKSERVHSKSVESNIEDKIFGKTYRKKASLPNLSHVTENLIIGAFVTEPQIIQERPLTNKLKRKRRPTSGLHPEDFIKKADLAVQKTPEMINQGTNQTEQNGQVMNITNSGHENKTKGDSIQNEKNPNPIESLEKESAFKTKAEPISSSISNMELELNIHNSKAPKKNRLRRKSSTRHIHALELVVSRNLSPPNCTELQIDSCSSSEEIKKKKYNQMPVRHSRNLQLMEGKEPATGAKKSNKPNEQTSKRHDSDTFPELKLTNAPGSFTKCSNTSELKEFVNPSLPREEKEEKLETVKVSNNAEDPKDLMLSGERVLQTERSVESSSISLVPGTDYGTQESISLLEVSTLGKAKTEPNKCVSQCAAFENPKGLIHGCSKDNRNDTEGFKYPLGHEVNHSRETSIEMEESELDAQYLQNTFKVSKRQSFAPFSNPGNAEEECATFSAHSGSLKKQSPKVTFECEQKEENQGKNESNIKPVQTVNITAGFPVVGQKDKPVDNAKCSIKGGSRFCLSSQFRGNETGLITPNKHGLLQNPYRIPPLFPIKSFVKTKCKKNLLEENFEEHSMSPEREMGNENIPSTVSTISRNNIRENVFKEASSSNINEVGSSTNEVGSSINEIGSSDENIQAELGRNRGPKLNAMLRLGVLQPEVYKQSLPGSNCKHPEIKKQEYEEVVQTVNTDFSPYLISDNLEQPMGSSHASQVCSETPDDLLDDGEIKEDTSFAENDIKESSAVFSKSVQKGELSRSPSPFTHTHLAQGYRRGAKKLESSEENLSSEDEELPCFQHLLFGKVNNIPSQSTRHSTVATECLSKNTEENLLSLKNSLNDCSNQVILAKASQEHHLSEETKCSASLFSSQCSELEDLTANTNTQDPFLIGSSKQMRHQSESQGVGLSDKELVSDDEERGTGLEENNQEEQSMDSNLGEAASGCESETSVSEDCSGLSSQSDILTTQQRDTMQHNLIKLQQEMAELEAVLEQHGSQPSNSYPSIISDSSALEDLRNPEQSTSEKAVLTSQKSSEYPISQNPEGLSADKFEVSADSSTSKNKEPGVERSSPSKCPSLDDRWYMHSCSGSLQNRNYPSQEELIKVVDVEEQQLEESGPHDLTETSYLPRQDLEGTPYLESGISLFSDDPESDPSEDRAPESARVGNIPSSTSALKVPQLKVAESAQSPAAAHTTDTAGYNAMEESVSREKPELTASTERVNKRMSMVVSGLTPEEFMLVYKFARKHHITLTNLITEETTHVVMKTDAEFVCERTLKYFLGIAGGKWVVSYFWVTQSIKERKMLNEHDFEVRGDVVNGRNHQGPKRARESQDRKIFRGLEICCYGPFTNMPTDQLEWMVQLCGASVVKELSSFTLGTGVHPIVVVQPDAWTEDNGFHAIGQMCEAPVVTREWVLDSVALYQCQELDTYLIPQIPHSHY

binding result [1]	binding result [2]	Binder
binds	–	MBP-tagged C-motif (208-345) of the WSTF kinase domain (other, Made in E. coli; also called MBP-tagged WAC C-motif; not shown: N-terminal MBP tag of a modified pRSFDuet-1) GERKWAPPKFLPHKYDVKLQNEDKIISNVPADSLIRTERPPNKEIVRYFIRHNALRAGTGENAPWVVEDELVKKYSLPSKFSDFLLDPYKYMTLNPSTKRKNTGSPDRKPSKKSKTDNSSLSSPLNPKLWCHVHLKKS
–	no binding	CPSGGKKATQA[pS]QEY (Pull-down peptide; also called Ser139(ph) peptides; H2A.X peptides singly phosphorylated on Ser139) [H2A.X peptide S139(ph), N-CPSGGKKATQApSQEY-C]
